# Experimental data taken from patent US20180245061A1, “Modified Heterocyclase” (THE UNIVERSITY COURT OF THE UNIVERSITY OF ABERDEEN, priority 2014, published 2018).
# Tested on: PatE′
# Assay: Heterocyclization reaction with PatE′, MS analysis
# Format: biochemical
# Conditions: PatE′ with 2 μM enzyme, 5 mM ATP, 5 mM MgCl2, 16 h at 37° C.; TABLE 1
# Method: For all heterocyclization reactions, […] PatE′ (and variants,) was incubated with 2 μM enzyme in 150 mM NaCl, 10 mM HEPES pH 7.4, 1 mM TCEP, 5 mM ATP and 5 mM MgCl2 for 16 h at 37° C. Samples were analyzed by ESI or MALDI MS (LCT, Micromass or 4800 MALDI TOF/TOF Analyzer, ABSciex). For cis trans activation studies, 100 μM ITACITFCAYDG synthetic test peptide (Peptide Protein Research Ltd) was reacted with 5 μM heterocyclase enzyme in the presence and absence of 5.5 μM LAELSEEAL synthetic peptide, or 5.5 μM full-length PatE′4 leader peptide. The reaction was carried out in 150 mM NaCl, 10 mM HEPES pH 7.4, 1 mM TCEP, 5 mM ATP and 5 mM MgCl2 for 16 h at 37° C. and analyzed as above. Synthetic peptides were purchased from Peptide Protein Research Ltd.
# Sequence of PatE′ (as listed by the source): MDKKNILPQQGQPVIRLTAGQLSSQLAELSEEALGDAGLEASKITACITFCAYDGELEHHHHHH
row,Molecule,No. of heterocycles (PatE′)
1,LynD K409E: LynD point mutant K409E (protein) MQSTPLLQIQPHFHVEVIEPKQVYLLGEQANHALTGQLYCQILPLLNGQYTLEQIVEKLDGEVPPEYIDYVLERLAEKGYLTEAAPELSSEVAAFWSELGIAPPVAAEALRQPVTLTPVGNISEVTVAALTTALRDIGISVQTPTEAGSPTALNVVLTDDYLQPELAKINKQALESQQTWLLVKPVGSVLWLGPVFVPGKTGCWDCLAHRLRGNREVEASVLRQKQAQQQRNGQSGSVIGCLPTARATLPSTLQTGLQFAATEIAKWIVKYHVNATAPGTVFFPTLDGKIITLNHSILDLKSHILIKRSQCPTCGDPKILQHRGFEPLKLESRPKQFTSDGGHRGTTPEQTVQKYQHLISPVTGVVTELVRITDPANPLVHTYRAGHSFGSATSLRGLRNTLKHKSSGEGKTDSQSKASGLCEAVERYSGIFQGDEPRKRATLAELGDLAIHPEQCLCFSDGQYANRETLNEQATVAHDWIPQRFDASQAIEWTPVWSLTEQTHKYLPTALCYYHYPLPPEHRFARGDSNGNAAGNTLEEAILQGFMELVERDGVALWWYNRLRRPAVDLGSFNEPYFVQLQQFYRENDRDLWVLDLTADLGIPAFAGVSNRKTGSSERLILGFGAHLDPTIAILRAVTEVNQIGLELDKVPDENLKSDATDWLITEKLADHPYLLPDTTQPLKTAQDYPKRWSDDIYTDVMTCVNIAQQAGLETLVIDQTRPDIGLNVVKVTVPGMRHFWSRFGEGRLYDVPVKLGWLDEPLTEAQMNPTPMPF,2
2,LynD K409A: LynD point mutant K409A (protein) MQSTPLLQIQPHFHVEVIEPKQVYLLGEQANHALTGQLYCQILPLLNGQYTLEQIVEKLDGEVPPEYIDYVLERLAEKGYLTEAAPELSSEVAAFWSELGIAPPVAAEALRQPVTLTPVGNISEVTVAALTTALRDIGISVQTPTEAGSPTALNVVLTDDYLQPELAKINKQALESQQTWLLVKPVGSVLWLGPVFVPGKTGCWDCLAHRLRGNREVEASVLRQKQAQQQRNGQSGSVIGCLPTARATLPSTLQTGLQFAATEIAKWIVKYHVNATAPGTVFFPTLDGKIITLNHSILDLKSHILIKRSQCPTCGDPKILQHRGFEPLKLESRPKQFTSDGGHRGTTPEQTVQKYQHLISPVTGVVTELVRITDPANPLVHTYRAGHSFGSATSLRGLRNTLKHKSSGAGKTDSQSKASGLCEAVERYSGIFQGDEPRKRATLAELGDLAIHPEQCLCFSDGQYANRETLNEQATVAHDWIPQRFDASQAIEWTPVWSLTEQTHKYLPTALCYYHYPLPPEHRFARGDSNGNAAGNTLEEAILQGFMELVERDGVALWWYNRLRRPAVDLGSFNEPYFVQLQQFYRENDRDLWVLDLTADLGIPAFAGVSNRKTGSSERLILGFGAHLDPTIAILRAVTEVNQIGLELDKVPDENLKSDATDWLITEKLADHPYLLPDTTQPLKTAQDYPKRWSDDIYTDVMTCVNIAQQAGLETLVIDQTRPDIGLNVVKVTVPGMRHFWSRFGEGRLYDVPVKLGWLDEPLTEAQMNPTPMPF,1
3,LynD E423R: LynD point mutant E423R (protein) MQSTPLLQIQPHFHVEVIEPKQVYLLGEQANHALTGQLYCQILPLLNGQYTLEQIVEKLDGEVPPEYIDYVLERLAEKGYLTEAAPELSSEVAAFWSELGIAPPVAAEALRQPVTLTPVGNISEVTVAALTTALRDIGISVQTPTEAGSPTALNVVLTDDYLQPELAKINKQALESQQTWLLVKPVGSVLWLGPVFVPGKTGCWDCLAHRLRGNREVEASVLRQKQAQQQRNGQSGSVIGCLPTARATLPSTLQTGLQFAATEIAKWIVKYHVNATAPGTVFFPTLDGKIITLNHSILDLKSHILIKRSQCPTCGDPKILQHRGFEPLKLESRPKQFTSDGGHRGTTPEQTVQKYQHLISPVTGVVTELVRITDPANPLVHTYRAGHSFGSATSLRGLRNTLKHKSSGKGKTDSQSKASGLCRAVERYSGIFQGDEPRKRATLAELGDLAIHPEQCLCFSDGQYANRETLNEQATVAHDWIPQRFDASQAIEWTPVWSLTEQTHKYLPTALCYYHYPLPPEHRFARGDSNGNAAGNTLEEAILQGFMELVERDGVALWWYNRLRRPAVDLGSFNEPYFVQLQQFYRENDRDLWVLDLTADLGIPAFAGVSNRKTGSSERLILGFGAHLDPTIAILRAVTEVNQIGLELDKVPDENLKSDATDWLITEKLADHPYLLPDTTQPLKTAQDYPKRWSDDIYTDVMTCVNIAQQAGLETLVIDQTRPDIGLNVVKVTVPGMRHFWSRFGEGRLYDVPVKLGWLDEPLTEAQMNPTPMPF,0
